Laboratory results as given in patent publication US20110269944.

Experiments:
[1] = test system: HGF-NG precursor protein (5-amino-acid-deleted-type/glycosylation-deficient human HGF with the natural α chain-β chain boundary sequence Arg489-Val490)
[2] = test system: HGF-G3 precursor protein (HGF-NG with Lys-Thr-Lys-Gln-Leu-Arg at 484-489 converted into Pro-Gly-Ala-Ala-His-Tyr)
[3] = test system: HGF-G1 precursor protein (HGF-NG with Leu488-Arg489 at the C-terminus of the α chain converted into His-Tyr)
[4] = test system: HGF-G2 precursor protein (HGF-NG with Arg489-Val490 converted into Tyr-His)
HGF-G2 precursor protein (HGF-NG with Arg489-Val490 converted into Tyr-His), sequence (chain, as listed by the source): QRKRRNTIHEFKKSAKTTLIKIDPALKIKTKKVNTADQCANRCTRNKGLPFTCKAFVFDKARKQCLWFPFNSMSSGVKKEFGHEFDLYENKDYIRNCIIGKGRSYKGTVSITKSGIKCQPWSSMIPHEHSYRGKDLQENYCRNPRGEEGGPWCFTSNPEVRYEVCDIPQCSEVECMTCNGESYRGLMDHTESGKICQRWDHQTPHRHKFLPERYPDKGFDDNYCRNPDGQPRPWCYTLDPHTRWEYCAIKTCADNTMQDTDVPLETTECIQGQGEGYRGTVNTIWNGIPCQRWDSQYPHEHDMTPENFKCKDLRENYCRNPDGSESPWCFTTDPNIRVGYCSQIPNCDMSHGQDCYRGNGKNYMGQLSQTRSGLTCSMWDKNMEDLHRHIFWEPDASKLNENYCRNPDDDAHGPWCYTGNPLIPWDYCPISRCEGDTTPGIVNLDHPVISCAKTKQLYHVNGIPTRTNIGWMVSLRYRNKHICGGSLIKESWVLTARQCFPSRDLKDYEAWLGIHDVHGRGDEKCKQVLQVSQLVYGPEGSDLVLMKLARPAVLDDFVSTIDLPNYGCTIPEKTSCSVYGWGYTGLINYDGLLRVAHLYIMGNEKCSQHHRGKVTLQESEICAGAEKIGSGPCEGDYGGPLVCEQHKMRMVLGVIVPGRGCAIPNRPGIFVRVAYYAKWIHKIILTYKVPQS

HGF-G1 precursor protein (HGF-NG with Leu488-Arg489 at the C-terminus of the α chain converted into His-Tyr), sequence (chain, as listed by the source): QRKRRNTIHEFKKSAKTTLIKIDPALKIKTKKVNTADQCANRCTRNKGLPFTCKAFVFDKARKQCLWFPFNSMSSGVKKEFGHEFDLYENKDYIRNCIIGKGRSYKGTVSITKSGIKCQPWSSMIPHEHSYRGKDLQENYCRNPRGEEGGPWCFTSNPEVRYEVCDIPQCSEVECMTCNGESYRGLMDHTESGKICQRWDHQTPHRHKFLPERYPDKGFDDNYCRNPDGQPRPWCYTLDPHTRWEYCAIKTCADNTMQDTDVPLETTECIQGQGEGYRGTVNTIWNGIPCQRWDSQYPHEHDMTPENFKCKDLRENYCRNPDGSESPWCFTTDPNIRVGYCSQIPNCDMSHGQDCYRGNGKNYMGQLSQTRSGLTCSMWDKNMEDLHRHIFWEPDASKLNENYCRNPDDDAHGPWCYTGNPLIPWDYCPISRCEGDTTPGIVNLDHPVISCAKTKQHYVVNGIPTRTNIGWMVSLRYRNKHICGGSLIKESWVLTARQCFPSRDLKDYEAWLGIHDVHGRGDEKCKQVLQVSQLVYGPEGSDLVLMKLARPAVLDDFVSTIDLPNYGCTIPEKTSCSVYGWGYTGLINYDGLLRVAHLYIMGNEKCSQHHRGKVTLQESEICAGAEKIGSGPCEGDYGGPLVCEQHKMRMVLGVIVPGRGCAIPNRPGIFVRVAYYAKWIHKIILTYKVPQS
HGF-G3 precursor protein (HGF-NG with Lys-Thr-Lys-Gln-Leu-Arg at 484-489 converted into Pro-Gly-Ala-Ala-His-Tyr), sequence (chain, as listed by the source): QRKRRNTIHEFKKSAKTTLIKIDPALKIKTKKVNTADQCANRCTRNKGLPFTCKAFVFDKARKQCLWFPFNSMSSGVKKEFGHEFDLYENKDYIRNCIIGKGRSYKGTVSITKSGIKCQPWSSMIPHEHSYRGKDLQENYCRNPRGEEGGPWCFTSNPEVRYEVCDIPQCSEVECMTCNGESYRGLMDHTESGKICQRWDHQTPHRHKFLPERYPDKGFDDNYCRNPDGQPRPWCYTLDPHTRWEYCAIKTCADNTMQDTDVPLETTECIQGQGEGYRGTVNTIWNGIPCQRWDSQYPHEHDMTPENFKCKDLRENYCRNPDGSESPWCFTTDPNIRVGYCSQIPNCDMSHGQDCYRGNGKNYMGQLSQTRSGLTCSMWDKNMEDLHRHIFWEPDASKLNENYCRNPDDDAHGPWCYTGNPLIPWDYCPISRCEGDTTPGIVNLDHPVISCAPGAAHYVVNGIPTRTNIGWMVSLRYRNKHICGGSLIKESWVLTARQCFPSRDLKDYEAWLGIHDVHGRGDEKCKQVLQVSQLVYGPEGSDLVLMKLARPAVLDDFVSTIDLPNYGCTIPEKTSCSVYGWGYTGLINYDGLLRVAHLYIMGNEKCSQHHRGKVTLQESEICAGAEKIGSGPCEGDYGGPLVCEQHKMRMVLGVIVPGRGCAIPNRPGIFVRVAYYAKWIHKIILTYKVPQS
HGF-NG precursor protein (5-amino-acid-deleted-type/glycosylation-deficient human HGF with the natural α chain-β chain boundary sequence Arg489-Val490), sequence (chain, as listed by the source, stated change not applied): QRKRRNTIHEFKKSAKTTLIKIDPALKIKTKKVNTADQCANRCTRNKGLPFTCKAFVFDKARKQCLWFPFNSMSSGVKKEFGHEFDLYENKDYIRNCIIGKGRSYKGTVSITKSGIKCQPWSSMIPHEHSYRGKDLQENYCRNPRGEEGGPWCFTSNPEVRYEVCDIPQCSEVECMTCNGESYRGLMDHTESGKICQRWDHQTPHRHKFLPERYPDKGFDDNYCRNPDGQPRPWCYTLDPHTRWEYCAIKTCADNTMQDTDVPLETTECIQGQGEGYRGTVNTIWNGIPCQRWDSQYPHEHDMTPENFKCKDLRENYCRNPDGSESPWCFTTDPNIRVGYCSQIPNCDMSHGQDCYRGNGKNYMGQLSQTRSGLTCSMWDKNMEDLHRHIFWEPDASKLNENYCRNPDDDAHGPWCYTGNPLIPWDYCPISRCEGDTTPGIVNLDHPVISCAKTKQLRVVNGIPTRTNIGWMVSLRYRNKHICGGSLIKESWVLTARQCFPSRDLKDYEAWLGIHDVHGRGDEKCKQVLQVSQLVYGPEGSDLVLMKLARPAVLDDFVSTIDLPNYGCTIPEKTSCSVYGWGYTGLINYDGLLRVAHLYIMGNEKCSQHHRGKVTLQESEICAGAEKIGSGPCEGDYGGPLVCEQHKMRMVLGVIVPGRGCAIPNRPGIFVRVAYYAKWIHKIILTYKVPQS

Genenase I (made by New England Laboratory)
cleavage of the single-stranded precursor (western blot, reducing SDS-PAGE) [1]: HGF-NG precursor protein having a natural α chain-β chain boundary sequence was not cleaved by Genenase I | cleavage of the single-stranded precursor into α and β chain bands (western blot, reducing SDS-PAGE) [2]: after Genenase I treatment, bands were detected at the same positions as those of the α chain and β chain of HGF-NG | cleavage of the single-stranded precursor into α and β chain bands (western blot, reducing SDS-PAGE) [3]: after Genenase I treatment, bands were detected at the same positions as those of the α chain and β chain of HGF-NG | cleavage of the single-stranded precursor into α and β chain bands (western blot, reducing SDS-PAGE) [4]: after Genenase I treatment, bands were detected at the same positions as those of the α chain and β chain of HGF-NG
